In patent US20150291952 one finds Kd data, which are given here for six sequences.

This data set has as its target CHK2 (UniProt O96017). The data set can be described thus: EMSA. The conditions noted are these: SEQ:22 is the DNA template strand, RNA is its reverse complement. (A gel shift assay detects complexes by their altered migration in electrophoresis.)

Sequence of CHK2 (O96017 whole entry): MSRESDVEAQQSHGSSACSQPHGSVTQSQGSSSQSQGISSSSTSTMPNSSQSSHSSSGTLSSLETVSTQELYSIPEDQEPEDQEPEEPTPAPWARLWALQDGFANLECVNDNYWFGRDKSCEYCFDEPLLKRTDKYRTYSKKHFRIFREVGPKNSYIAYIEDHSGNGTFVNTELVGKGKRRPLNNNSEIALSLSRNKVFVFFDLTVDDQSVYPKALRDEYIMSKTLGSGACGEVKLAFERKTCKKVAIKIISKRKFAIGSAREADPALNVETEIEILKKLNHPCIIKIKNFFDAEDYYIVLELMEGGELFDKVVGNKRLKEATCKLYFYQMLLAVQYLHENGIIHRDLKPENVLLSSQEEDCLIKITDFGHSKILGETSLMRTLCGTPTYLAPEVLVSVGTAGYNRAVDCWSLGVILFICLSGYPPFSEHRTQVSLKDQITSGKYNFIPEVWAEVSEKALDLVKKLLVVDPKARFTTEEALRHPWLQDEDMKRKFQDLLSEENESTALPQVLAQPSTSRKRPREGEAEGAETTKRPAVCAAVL

In turn, “AAGCUUCGUCAAGUCUGCAGUGAANNNNNNNNNNNNNNNNNNNNNNNNNNNNNNNNNNNNNNNNNNNNNNNNNNNNNNNNNNNNNNNNNNNNNNGAAUUCGUAGAUGUGGAUCCAUUCCC [CHK2 RAPID Cycle 2 pool]” came in with a dissociation constant Kd (bulk pool, 65% bound at highest protein) of 390 nM.
For “AAGCUUCGUCAAGUCUGCAGUGAANNNNNNNNNNNNNNNNNNNNNNNNNNNNNNNNNNNNNNNNNNNNNNNNNNNNNNNNNNNNNNNNNNNNNNGAAUUCGUAGAUGUGGAUCCAUUCCC [CHK2 RAPID Cycle 4 pool]”, the Kd (bulk pool, 72% bound at highest protein) worked out at 209 nM.
For “AAGCUUCGUCAAGUCUGCAGUGAANNNNNNNNNNNNNNNNNNNNNNNNNNNNNNNNNNNNNNNNNNNNNNNNNNNNNNNNNNNNNNNNNNNNNNGAAUUCGUAGAUGUGGAUCCAUUCCC [CHK2 RAPID Cycle 6 pool]”, the dissociation constant (Kd) (bulk pool, 87% bound at highest protein) stood at 191 nM.
Take “AAGCUUCGUCAAGUCUGCAGUGAANNNNNNNNNNNNNNNNNNNNNNNNNNNNNNNNNNNNNNNNNNNNNNNNNNNNNNNNNNNNNNNNNNNNNNGAAUUCGUAGAUGUGGAUCCAUUCCC [CHK2 SELEX Cycle 3 pool]”: the Kd (bulk pool, 69% bound, FP Kd 1.6-fold higher (FIG. 8)) was 315 nM.
“AAGCUUCGUCAAGUCUGCAGUGAANNNNNNNNNNNNNNNNNNNNNNNNNNNNNNNNNNNNNNNNNNNNNNNNNNNNNNNNNNNNNNNNNNNNNNGAAUUCGUAGAUGUGGAUCCAUUCCC [CHK2 SELEX Cycle 6 pool]”: the equilibrium dissociation constant (Kd) (bulk pool, 86% bound, FP Kd 1.6-fold higher (FIG. 8)) stood at 281 nM.
Under “starting library, 59% bound at highest protein”, “AAGCUUCGUCAAGUCUGCAGUGAANNNNNNNNNNNNNNNNNNNNNNNNNNNNNNNNNNNNNNNNNNNNNNNNNNNNNNNNNNNNNNNNNNNNNNGAAUUCGUAGAUGUGGAUCCAUUCCC [N70 starting RNA library]” returned a Kd above 1000 nM.

The Kd is the equilibrium constant for the complex coming apart.
